The text below walks through data of the RNAGym collection of RNA variant scans (doi:10.1101/gr.219683.116).

B1: mRNA-splicing (parent)
chain: AGUUGCUGCUGGGAGCUCCAGCACAGUGAAAUGGACAGAAGGGCAGAGCAA

The variants in this data set derive from B1. In words: exon inclusion enrichment index; higher = more inclusion; WT1 exon 5 minigene, HEK293.
For the variant A14U G15A, the “exon inclusion enrichment index” value was 0.0161. Then C18A C19G, with 0.352; and C18A C19A, with 0.547; and C18A C19U, with 0.121. As to A23U C24U, the “exon inclusion enrichment index” value stood at 0.078.

With A23U C24A, the “exon inclusion enrichment index” value came out at 0.217.

Regarding A23U C24G, the “exon inclusion enrichment index” value came to 0.96. For G13U A14C, the “exon inclusion enrichment index” value was 0.0646. With G13U A14U the figure was 0.0193; with G13U A14G, 0.0891; with C16U U17G, 0.211. With C16U U17A the figure was 0.0567. With C16U U17C the figure was 0.038; with G11C G12A, 0.472; with G11C G12U, 0.467. As for G11C G12C, the “exon inclusion enrichment index” value amounted to 1.58. Then A29C, with 0.0903. Then A29G, with 0.272; and A29U, with 0.0295.

As for C24G, the “exon inclusion enrichment index” value is 0.0337. Then C24A, with 0.223. Then C24U, with 0.0472; and G15A C16A, with 0.03. Then G15A C16U, with 0.014; and G15A C16G, with 0.0571; and A25C G26C, with 0.435. For the variant A25C G26U, the “exon inclusion enrichment index” value is 0.368.

Turning to A25C G26A, the “exon inclusion enrichment index” value came out at 0.448. Turning to G11U G12U, the “exon inclusion enrichment index” value stood at 0.755. With G11U G12A the figure was 0.315; with G11U G12C, 1.86; with G15C C16U, 0.0653. In the case of G15C C16A, the “exon inclusion enrichment index” value was 0.0306. In the case of G15C C16G, the “exon inclusion enrichment index” value was determined as 0.178. Turning to G21C C22U, the “exon inclusion enrichment index” value came to 2.41. With G21C C22A the figure was 2.18; with G21C C22G, 3.35; with U27G G28U, 0.00139. Then U27G G28C, with 0.101; and U27G G28A, with 0.354. With G13A the figure was 0.135; with G13U, 0.0154; with G13C, 0.0504.

As for A37U G38A, the “exon inclusion enrichment index” value came out at 0.0367. A31G U32G: the “exon inclusion enrichment index” value was 0.104. Then A31G U32C, with 0.99; and A31G U32A, with 1.08. With G28C A29G the figure was 0.405; with G28C A29C, 0.118; with G28C A29U, 0.0556. For U17C C18U, the “exon inclusion enrichment index” value turned out to be 1.34. With U17C C18A the figure was 1.29. Then U17C C18G, with 0.369; and G21U C22U, with 0.89. With G21U C22A the figure was 1.05; with G21U C22G, 2.39; with U27G, 0.0622. U27C: the “exon inclusion enrichment index” value is 0.36. With U27A the figure was 0.201. With A25U G26U the figure was 0.0827; with A25U G26C, 0.235; with A25U G26A, 0.136. With U17A the figure was 0.131; with U17C, 0.0839.

Turning to U17G, the “exon inclusion enrichment index” value was determined as 0.247. With G12C G13C the figure was 0.309. With G12C G13U the figure was 0.237. With G12C G13A the figure was 1.1. On to G15U, for which the “exon inclusion enrichment index” value turned out to be 0.0812. With G15A the figure was 0.048; with G15C, 0.187; with C24A A25G, 0.315. With C24A A25C the figure was 0.728; with C24A A25U, 0.16; with A31C U32G, 0.373. With A31C U32C the figure was 0.643.

With A31C U32A, the “exon inclusion enrichment index” value is 0.0661. Then C19U A20U, with 1.01; and C19U A20G, with 0.684; and C19U A20C, with 1.96. With G28A the figure was 0.0138; with G28C, 0.104. As for G28U, the “exon inclusion enrichment index” value was 0.0227. For A37C, the “exon inclusion enrichment index” value was 0.637. Then A37U, with 0.121. With A37G the figure was 0.438; with C18G C19A, 2.92. Take C18G C19U: the “exon inclusion enrichment index” value amounted to 0.777.

On to C18G C19G, for which the “exon inclusion enrichment index” value was 3.04. As for U17G C18U, the “exon inclusion enrichment index” value was 1.5. Then U17G C18A, with 1.73; and U17G C18G, with 0.0429. Then A37G G38C, with 0.249; and A37G G38U, with 0.0457. For the variant A37G G38A, the “exon inclusion enrichment index” value stood at 0.201. Consider G26C U27G, for which the “exon inclusion enrichment index” value turned out to be 0.615. With G26C U27C the figure was 0.584; with G26C U27A, 0.11. Then U10A G11U, with 2.73. Then U10A G11A, with 2.02; and U10A G11C, with 2.77; and A14G G15U, with 0.0597. A14G G15C: the “exon inclusion enrichment index” value is 0.0893. Then A14G G15A, with 0.102; and A31C, with 0.288.

Take A31G: the “exon inclusion enrichment index” value stood at 0.255. With A31U the figure was 0.159; with C36A A37C, 0.209. In the case of C36A A37U, the “exon inclusion enrichment index” value is 0.0531.

Consider C36A A37G, for which the “exon inclusion enrichment index” value amounted to 0.0199. Then A35C, with 0.041; and A35U, with 0.0139.

As to A35G, the “exon inclusion enrichment index” value was determined as 0.0494. With A30U A31G the figure was 0.155.

As to A30U A31C, the “exon inclusion enrichment index” value is 0.202. On to A30U A31U, for which the “exon inclusion enrichment index” value is 0.087.

As for A30C A31G, the “exon inclusion enrichment index” value was 0.41.

Regarding A30C A31U, the “exon inclusion enrichment index” value amounted to 0.103. Then A30C A31C, with 0.337; and U27A G28A, with 0.181. With U27A G28U the figure was 0.0261; with U27A G28C, 0.192; with C16A U17G, 0.0435. With C16A U17C the figure was 0.0503; with C16A U17A, 0.0497; with G12A G13C, 1.2. As to G12A G13U, the “exon inclusion enrichment index” value is 0.459. With G12A G13A the figure was 1.29; with U27C G28C, 0.105. Then U27C G28A, with 0.0654; and U27C G28U, with 0.00627; and A29U A30U, with 0.0389. Then A29U A30C, with 0.119; and A29U A30G, with 0.237. G11A: the “exon inclusion enrichment index” value is 0.618.

As to G11C, the “exon inclusion enrichment index” value came to 2.05. Then G11U, with 2.22; and U17A C18G, with 0.00663. Then U17A C18A, with 0.314; and U17A C18U, with 1.09. With G34U the figure was 0.0244. Consider G34C, for which the “exon inclusion enrichment index” value is 0.0362. Then G34A, with 0.0592. With A29G A30C the figure was 0.0218.

Regarding A29G A30G, the “exon inclusion enrichment index” value is 0.114.

As to A29G A30U, the “exon inclusion enrichment index” value came to 0.0289. Then A20G G21U, with 2.37; and A20G G21A, with 2.89; and A20G G21C, with 2.64.

Take G26A U27C: the “exon inclusion enrichment index” value is 0.0175.

As for G26A U27G, the “exon inclusion enrichment index” value came out at 0.311. Then G26A U27A, with 0.101; and C36U, with 0.0249. With C36G the figure was 0.0745; with C36A, 0.0939. Then G34U A35C, with 0.0394; and G34U A35G, with 0.142; and G34U A35U, with 0.0144. On to A25G G26A, for which the “exon inclusion enrichment index” value stood at 0.573. Then A25G G26U, with 0.326; and A25G G26C, with 0.272. For G13C A14C, the “exon inclusion enrichment index” value came to 0.19. Then G13C A14G, with 0.42; and G13C A14U, with 0.194.

On to A23C, for which the “exon inclusion enrichment index” value came out at 0.646. For the variant A23G, the “exon inclusion enrichment index” value is 0.414.

In the case of A23U, the “exon inclusion enrichment index” value was 0.475.
